The results in this text go back to the supplement of paper PMC12855868.

B1: library; numbered along this chain (parent)
chain: MAAAGGARLLRAASAVLGGPAGRWLHHAGSRAGSSGLLRNRGPGGSAEASRSLSVSARARSSSEDKITVHFINRDGETLTTKGKVGDSLLDVVVENNLDIDGFGACEGTLACSTCHLIFEDHIYEKLDAITDEENDMLDLAYGLTDRSRLGCQICLTKSMDNMTVRVPETVADARQSIDVGKTS

In this data set the parent is B1. In words: scaled log2 fold change in cell abundance, elesclomol vs control (0 = silent mean, 1 = nonsense mean) (scaled log2 ratio); higher = higher viability under elesclomol (loss of FDX1 cuproptosis function). Particulars: glucose 10 mM. Here is the method: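 Deep mutational scan of full-length human FDX1: a pooled saturation-mutagenesis ORF library (every residue 2-184 mutated to all 19 amino acids plus stop, and silent codons where available) was expressed by lentivirus in FDX1-knockout ABC1 (14 days) or HEK293T (11 days) cells grown with elesclomol (ES) or DMSO control. Variant abundance came from ORF sequencing. The log2 fold change (ES vs control, mean of duplicates) was centred on the silent-variant mean (0) and scaled to the nonsense-variant mean (1). Higher values mean greater viability under ES, i.e. loss of FDX1 function in cuproptosis.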

Setting [1] is: with ABC1 FDX1 KO, elesclomol 5 nM, 14 days.
Where [2] appears, read: with HEK293T FDX1 KO, elesclomol 40 nM, 11 days.
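Also: variant abundance is its share of total variant reads in each endpoint sample, from next-generation sequencing of the integrated ORF PCR-amplified out of genomic DNA.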

With MAAAGGARLLRAASAVLGGPAGRWLHHAGSRAGSSGLLRLRGPGGSAEASRSLSVSARARSSSEDKITVHFINRDGETLTTKGKVGDSLLDVVVENNLDIDGFGACEGTLACSTCHLIFEDHIYEKLDAITDEENDMLDLAYGLTDRSRLGCQICLTKSMDNMTVRVPETVADARQSIDVGKTS, the “scaled log2 fold change” value under setting [1] is -0.507 and the “scaled log2 fold change” value under setting [2] is 0.239.
Take MAAAGGARLLRAASAVLGGPAGRWLHHAGSRAGSSGLLRFRGPGGSAEASRSLSVSARARSSSEDKITVHFINRDGETLTTKGKVGDSLLDVVVENNLDIDGFGACEGTLACSTCHLIFEDHIYEKLDAITDEENDMLDLAYGLTDRSRLGCQICLTKSMDNMTVRVPETVADARQSIDVGKTS: the “scaled log2 fold change” value under setting [1] was -0.01 and the “scaled log2 fold change” value under setting [2] turned out to be 0.266.
The matching figures for MAAAGGARLLRAASAVLGGPAGRWLHHAGSRAGSSGLLRDRGPGGSAEASRSLSVSARARSSSEDKITVHFINRDGETLTTKGKVGDSLLDVVVENNLDIDGFGACEGTLACSTCHLIFEDHIYEKLDAITDEENDMLDLAYGLTDRSRLGCQICLTKSMDNMTVRVPETVADARQSIDVGKTS: -0.359 and -0.577.
As for MAAAGGARLLRAASAVLGGPAGRWLHHAGSRAGSSGLLRTRGPGGSAEASRSLSVSARARSSSEDKITVHFINRDGETLTTKGKVGDSLLDVVVENNLDIDGFGACEGTLACSTCHLIFEDHIYEKLDAITDEENDMLDLAYGLTDRSRLGCQICLTKSMDNMTVRVPETVADARQSIDVGKTS, the “scaled log2 fold change” value is, setting by setting: under setting [1], -0.748; under setting [2], -0.708.
Consider MAAAGGARLLRAASAVLGGPAGRWLHHAGSRAGSSGLLRMRGPGGSAEASRSLSVSARARSSSEDKITVHFINRDGETLTTKGKVGDSLLDVVVENNLDIDGFGACEGTLACSTCHLIFEDHIYEKLDAITDEENDMLDLAYGLTDRSRLGCQICLTKSMDNMTVRVPETVADARQSIDVGKTS, for which the “scaled log2 fold change” value by setting is: under setting [1], -0.291; under setting [2], 0.304.
Consider MAAAGGARLLRAASAVLGGPAGRWLHHAGSRAGSSGLLRPRGPGGSAEASRSLSVSARARSSSEDKITVHFINRDGETLTTKGKVGDSLLDVVVENNLDIDGFGACEGTLACSTCHLIFEDHIYEKLDAITDEENDMLDLAYGLTDRSRLGCQICLTKSMDNMTVRVPETVADARQSIDVGKTS, for which the “scaled log2 fold change” value by setting is: under setting [1], -0.752; under setting [2], 0.374.
With MAAAGGARLLRAASAVLGGPAGRWLHHAGSRAGSSGLLRSRGPGGSAEASRSLSVSARARSSSEDKITVHFINRDGETLTTKGKVGDSLLDVVVENNLDIDGFGACEGTLACSTCHLIFEDHIYEKLDAITDEENDMLDLAYGLTDRSRLGCQICLTKSMDNMTVRVPETVADARQSIDVGKTS, the “scaled log2 fold change” value runs as follows: under setting [1], 0.213; under setting [2], 0.0876.
For the variant MAAAGGARLLRAASAVLGGPAGRWLHHAGSRAGSSGLLRRRGPGGSAEASRSLSVSARARSSSEDKITVHFINRDGETLTTKGKVGDSLLDVVVENNLDIDGFGACEGTLACSTCHLIFEDHIYEKLDAITDEENDMLDLAYGLTDRSRLGCQICLTKSMDNMTVRVPETVADARQSIDVGKTS, the “scaled log2 fold change” value came out at 0.387 under setting [1] and 0.0477 under setting [2].
On to MAAAGGARLLRAASAVLGGPAGRWLHHAGSRAGSSGLLRCRGPGGSAEASRSLSVSARARSSSEDKITVHFINRDGETLTTKGKVGDSLLDVVVENNLDIDGFGACEGTLACSTCHLIFEDHIYEKLDAITDEENDMLDLAYGLTDRSRLGCQICLTKSMDNMTVRVPETVADARQSIDVGKTS, for which the “scaled log2 fold change” value is -0.214 under setting [1] and 1.09 under setting [2].
Regarding MAAAGGARLLRAASAVLGGPAGRWLHHAGSRAGSSGLLRYRGPGGSAEASRSLSVSARARSSSEDKITVHFINRDGETLTTKGKVGDSLLDVVVENNLDIDGFGACEGTLACSTCHLIFEDHIYEKLDAITDEENDMLDLAYGLTDRSRLGCQICLTKSMDNMTVRVPETVADARQSIDVGKTS, the “scaled log2 fold change” value by setting is: under setting [1], -0.412; under setting [2], -0.381.
For the variant MAAAGGARLLRAASAVLGGPAGRWLHHAGSRAGSSGLLRERGPGGSAEASRSLSVSARARSSSEDKITVHFINRDGETLTTKGKVGDSLLDVVVENNLDIDGFGACEGTLACSTCHLIFEDHIYEKLDAITDEENDMLDLAYGLTDRSRLGCQICLTKSMDNMTVRVPETVADARQSIDVGKTS, under setting [1], the “scaled log2 fold change” value amounted to 0.118.
On to MAAAGGARLLRAASAVLGGPAGRWLHHAGSRAGSSGLLRQRGPGGSAEASRSLSVSARARSSSEDKITVHFINRDGETLTTKGKVGDSLLDVVVENNLDIDGFGACEGTLACSTCHLIFEDHIYEKLDAITDEENDMLDLAYGLTDRSRLGCQICLTKSMDNMTVRVPETVADARQSIDVGKTS, for which the “scaled log2 fold change” value reads like this: under setting [1], -0.307; under setting [2], 0.243.
Consider MAAAGGARLLRAASAVLGGPAGRWLHHAGSRAGSSGLLRKRGPGGSAEASRSLSVSARARSSSEDKITVHFINRDGETLTTKGKVGDSLLDVVVENNLDIDGFGACEGTLACSTCHLIFEDHIYEKLDAITDEENDMLDLAYGLTDRSRLGCQICLTKSMDNMTVRVPETVADARQSIDVGKTS, for which the “scaled log2 fold change” value is, setting by setting: under setting [1], -0.0431; under setting [2], 0.421.
As to MAAAGGARLLRAASAVLGGPAGRWLHHAGSRAGSSGLLRWRGPGGSAEASRSLSVSARARSSSEDKITVHFINRDGETLTTKGKVGDSLLDVVVENNLDIDGFGACEGTLACSTCHLIFEDHIYEKLDAITDEENDMLDLAYGLTDRSRLGCQICLTKSMDNMTVRVPETVADARQSIDVGKTS, the “scaled log2 fold change” value under setting [1] is -0.166 and the “scaled log2 fold change” value under setting [2] is -0.235.
For the variant MAAAGGARLLRAASAVLGGPAGRWLHHAGSRAGSSGLLRIRGPGGSAEASRSLSVSARARSSSEDKITVHFINRDGETLTTKGKVGDSLLDVVVENNLDIDGFGACEGTLACSTCHLIFEDHIYEKLDAITDEENDMLDLAYGLTDRSRLGCQICLTKSMDNMTVRVPETVADARQSIDVGKTS, the “scaled log2 fold change” value under setting [1] is 0.554 and the “scaled log2 fold change” value under setting [2] was -0.704.
On to MAAAGGARLLRAASAVLGGPAGRWLHHAGSRAGSSGLLRVRGPGGSAEASRSLSVSARARSSSEDKITVHFINRDGETLTTKGKVGDSLLDVVVENNLDIDGFGACEGTLACSTCHLIFEDHIYEKLDAITDEENDMLDLAYGLTDRSRLGCQICLTKSMDNMTVRVPETVADARQSIDVGKTS, for which the “scaled log2 fold change” value under setting [1] is 0.408 and the “scaled log2 fold change” value under setting [2] is -0.147.
Regarding MAAAGGARLLRAASAVLGGPAGRWLHHAGSRAGSSGLLYNRGPGGSAEASRSLSVSARARSSSEDKITVHFINRDGETLTTKGKVGDSLLDVVVENNLDIDGFGACEGTLACSTCHLIFEDHIYEKLDAITDEENDMLDLAYGLTDRSRLGCQICLTKSMDNMTVRVPETVADARQSIDVGKTS, the “scaled log2 fold change” value under setting [1] stood at 0.0455 and the “scaled log2 fold change” value under setting [2] is -0.31.
